Assay results reported in publication PMC7486785 (Proceedings of the National Academy of Sciences of the …, 2020).

Biological target: T1, Duck egg lysozyme (DEL) (Anas platyrhynchos, DEL-II double mutant, strain)
T1 construct: duck egg lysozyme, DEL-II isoform, D65N + N103D double mutant; source: P. pastoris, secreted, purified (ion exchange)
T1 chain: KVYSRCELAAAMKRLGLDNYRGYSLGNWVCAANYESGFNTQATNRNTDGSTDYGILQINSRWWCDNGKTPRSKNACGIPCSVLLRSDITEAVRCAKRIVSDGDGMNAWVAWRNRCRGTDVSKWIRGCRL
Test: BLI; BLItz; biotinylated Fab loaded on streptavidin biosensors, lysozyme proteins in solution at a range of molar concentrations; PBS (sensors rehydrated in PBS with 0.1% BSA); global fit, 1:1 Fab-lysozyme interaction; affinities printed as 1/KD
Conditions: both partners purified

B1: Hy10 Fab (Fab, V domains shown)
VH: DVQLQESGPSLVKPSQTLSLTCSVTGDSITSDYWSWIRKFPGNRLEYMGYVSYSGSTYYNPSLKSRISITRDTSKNQYYLDLNSVTTEDTATYYCANWDGDYWGQGTLVTVSA
VL: DIVLTQSPATLSVTPGNSVSLSCRASQSIGNNLHWYQQKSHESPRLLIKYASQSISGIPSRFSGSGSGTDFTLSINSVETEDFGMYFCQQSNSWPYTFGGGTKLEIK
notes: Hy10 Fab heavy chain; Hy10 Fab light chain; Biotinylated only for BLI, not for the crystals; also called HyHEL10; WT founder antibody; source: Expi293, transient, purified (Talon, gel filtration)
- Ka: 2.5e+07 M⁻¹
